How the values were obtained:
[1] = biological target: SEMG2(497-509) polypeptide … (human); experiment: ELISA, immobilized antigen SEMG2 (497-509)
[2] = biological target: human SEMG2 full-length protein (human) (UniProt Q02383); experiment: ELISA, immobilized antigen SEMG2 (1-582)
[3] = biological target: SEMG2(442-453) fragment (human); experiment: ELISA, immobilized antigen SEMG2 (442-453)
[4] = biological target: SEMG2(354-403) fragment (human); experiment: ELISA, immobilized antigen SEMG2 (354-403)
Sequence of SEMG2(354-403) fragment (human) (peptide, as listed by the source): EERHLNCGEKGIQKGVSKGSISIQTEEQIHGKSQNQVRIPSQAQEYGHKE

[5] = biological target: SEMG2(563-574) fragment (human); experiment: ELISA, immobilized antigen SEMG2 (563-574)
[6] = biological target: SEMG2(497-509) polypeptide … (human); experiment: ELISA, immobilized peptide …
[7] = biological target: human SEMG2 full-length protein (human) (UniProt Q02383); experiment: ELISA, plate coated with SEMG2 protein; fit value printed for the flat control curve (see non_binding); the EC50 table prints no unit, the axis is log (antibody concentration, nM)

Sequence of human SEMG2 full-length protein (human) (Q02383 24-582 limits assumed): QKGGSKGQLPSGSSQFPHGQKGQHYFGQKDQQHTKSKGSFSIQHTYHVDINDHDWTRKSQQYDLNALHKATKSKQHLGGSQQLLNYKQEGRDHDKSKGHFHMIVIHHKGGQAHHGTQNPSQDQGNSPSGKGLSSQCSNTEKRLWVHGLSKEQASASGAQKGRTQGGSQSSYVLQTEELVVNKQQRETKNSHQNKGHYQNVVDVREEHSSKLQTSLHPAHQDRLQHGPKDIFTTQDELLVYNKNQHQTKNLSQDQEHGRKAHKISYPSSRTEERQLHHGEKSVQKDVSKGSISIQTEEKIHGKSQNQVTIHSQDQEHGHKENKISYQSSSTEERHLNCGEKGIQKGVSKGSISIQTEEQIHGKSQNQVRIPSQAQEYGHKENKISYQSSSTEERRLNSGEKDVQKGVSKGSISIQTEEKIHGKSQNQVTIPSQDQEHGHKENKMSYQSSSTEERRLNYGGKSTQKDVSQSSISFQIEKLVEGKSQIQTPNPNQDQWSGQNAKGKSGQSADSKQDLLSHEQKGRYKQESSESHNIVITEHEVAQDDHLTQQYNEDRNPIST

| A450 absorbance [1] | A450 absorbance [2] | A450 absorbance [3] | A450 absorbance [4] | A450 absorbance [5] | OD450 absorbance [6] | EC50 [7] | Substance |
| --- | --- | --- | --- | --- | --- | --- | --- |
| 0.002 | 1.16 | 0.007 | 1.14 | 0.011 | 0.005 |  | HPA042767 (rabbit polyclonal antibody against SEMG2(354-403), Sigma Aldrich) |
| 0.009 | 1.17 | 0.002 | 0.009 | 1.16 | 0.005 |  | HPA042835 (rabbit polyclonal antibody against SEMG2(563-574), Sigma Aldrich) |
|  |  |  |  |  |  | 0.0885 nM | mIgG1 (antibody) |
